Data taken from patent US9011845B2, “Methods for treatment of inflammatory and infectious viral diseases” (priority 2012, dated 2015).

How the values were obtained:
[1] = tested on: Adenovirus Type 5; assay: Adenovirus Type 5 pink-eye clinical disease rabbit eye model; format: in vivo; settings: treatment initiated eight hours after infection; four times daily
Experimental: FIG. 19 is a series of images of rabbit eyes with an Adenoviral infection and treated with control (peg-BSA), cidofovir, or peg-Arginase I drops, according to an example embodiment of the present invention.
In an in vivo rabbit eye model system, the ability of peg-Arginase I to prevent inflammation-associated disease following Adenoviral infection was examined. Rabbit eyes were infected with Adenovirus and eight hours later treatment was initiated. Eyes were treated four times daily with 10 U peg-Arginase I per 50 μl dose. […] FIGS. 20 through 24 illustrate that peg-Arginase I suppresses clinical presentation of disease at all treatment days, including suppression of ocular inflammation and neovascularization. […] These properties of peg-Arginase I illustrate the present invention's utility in preventing numerous vision-threatening ocular diseases that present clinically as inflammation or neovascularization of the eye.

[2] = tested on: HSV-1; assay: In vivo rabbit eye model of HSV infection; settings: for dendritic or geographic ulceration and clinical appearance: vs controls (PBS or peg-BSA)
From the text: FIG. 10 is line graph showing viral production in a rabbit eye model for eyes infected with HSV-1 and treated with controls (peg-BSA and PBS), 1% triflourothymidine, or peg-Arginase I, according to an example embodiment of the present invention.
FIG. 11 is a series of images of rabbit eyes infected with HSV-1 and treated with controls (peg-BSA or PBS), 1% triflourothymidine, or peg-Arginase I, according to an example embodiment of the present invention.
In an in vivo rabbit eye model system, the ability of peg-Arginase I to prevent HSV-mediated inflammation-associated disease was assessed relative to a commonly prescribed ophthalmic antiviral-1% triflourothymidine (TFT). Rabbit eyes were infected with HSV, and infection and disease were allowed to establish prior to beginning treatment. […] FIG. 11 depicts representative overall clinical presentation of ocular herpetic disease. In either of the control (PBS or peg-BSA) treatment groups, severe blinding disease was observed following infection, with presence of severe inflammatory discharge and blinding epithelial defects observed by slit lamp examination.

[3] = tested on: acyclovir resistant mutant HSV; assay: Cell cultures infected with acyclovir resistant mutant HSV: infectious HSV yield; format: cell-based; settings: two different drug resistant mutant HSV viruses
From the text: FIG. 8A is a bar graph showing infectious HSV yield for cell cultures infected with an acyclovir resistant mutant HSV, according to an example embodiment of the present invention.
FIG. 8B is a bar graph showing infectious HSV yield for cell cultures infected with a different acyclovir resistant mutant HSV, according to an example embodiment of the present invention.
(§1) In another exemplary embodiment, the present disclosure may be employed to treat pathogenic infections of the eye (e.g., herpes simplex virus types 1 and 2 (HSV-1 and HSV-2) and Adenovirus infections). Embodiments may be used as a treatment against wild-type and/or drug resistant herpes simplex virus (HSV) replication and/or transmission, as well as HSV-mediated inflammation-associated ocular disease.

[4] = tested on: Adenovirus; assay: Cell cultures infected with Adenovirus: cytopathic effects; format: cell-based
From the text: FIG. 18 is a pair of images of cell cultures infected with Adenovirus and treated with control (peg-BSA) or peg-Arginase I drops, according to an example embodiment of the present invention.
In another exemplary embodiment, the present disclosure may be employed to treat other inflammation-associated ocular diseases, such as those induced by Adenovirus infection. Clinical presentation following Adenoviral infection of the eye may proceed even when antiviral compounds, such as cidofovir, are present. Clinical presentation of Adenovirus-associated ocular disease may be due to uncontrolled inflammatory responses to the infection even following viral clearance.

[5] = tested on: surgically-induced corneal lesions; assay: Surgically debrided cornea (corneal wound healing) rabbit eye model; format: in vivo
From the text: FIG. 1A is a series of images of rabbit eyes with an 8 mm ([…]) region of cornea surgically debrided and treated with peg vehicle or peg-Arginase I, according to an example embodiment of the present invention.
In an exemplary embodiment, the present disclosure may be employed to treat ocular lesions, which may be caused by accidental or surgical trauma. Application of peg-Arginase I to a corneal lesion accelerates wound healing while reducing or eliminating ocular inflammation, neovascularization and inflammatory discharge.

[6] = tested on: VEGF-mediated corneal vascularization; assay: VEGF pellet corneal micropocket rabbit eye model; format: in vivo; settings: 10 U per 50 μl drop 4 times daily
Experimental: FIG. 26A is a pair of images of rabbit eyes having a VEGF pellet surgically implanted into a corneal micropocket and treated with vehicle or peg-Arginase I, according to an example embodiment of the present invention.
In an in vivo rabbit eye model system, the ability of peg-Arginase I to prevent VEGF-mediated corneal vascularization was assessed by implanting slow release VEGF pellets within a corneal micropocket 3 mm from the corneal limbus. Eyes were subsequently treated with either peg-Arginase I (right, OD eye) or peg-BSA vehicle control (left, OS eye) 4 times daily at a dose of 10 U per 50 μl drop. […] As shown, peg-Arginase I inhibits vision-threatening corneal vascularization, further enabling peg-Arginase I to prevent and ameliorate vision-threatening aspects of many ocular diseases. Moreover, inhibition of vascularization assists in suppressing deleterious inflammatory responses.

[7] = tested on: VEGF-mediated migration of primary vascular endothelial cells; assay: Endothelial cell migration in a scratch wound healing model; format: cell-based; settings: twenty-four hour period
From the text: FIG. 25A is a series of images comparing effects of treatment with either control (peg-BSA) or peg-Arginase I on endothelial cell migration in a scratch wound healing model, according to an example embodiment of the present invention.
FIG. 25B is a bar graph showing a percentage of unhealed wound area after a twenty-four hour period for the wounds shown in FIG. 25A.
In another exemplary embodiment, the present disclosure may be employed to prevent and resolve corneal neovascularization and vascularization-associated edema. […] A key mediator and initiator of corneal vascularization may be vascular endothelial growth factor (VEGF).

[8] = tested on: HSV-1; assay: Replication of HSV-1 in primary corneal epithelial cell cultures; format: cell-based; settings: primary human corneal epithelial cells
From the text: FIG. 9 is a bar graph showing replication of HSV-1 in primary corneal epithelial cell cultures treated with vehicle or peg-Arginase I, according to an example embodiment of the present invention.
as §1

[9] = tested on: HSV-1; assay: HSV-1 infected cell cultures: infectious viral yield, cytopathic effects, cell-to-cell spread; format: cell-based
From the text: FIG. 5 is a bar graph showing infectious viral yield for cell cultures infected with HSV-1 and treated with a vehicle (peg vehicle), peg-Arginase I, or different concentrations of acyclovir, according to an example embodiment of the present invention.
FIG. 6 is a series of images showing virus-mediated cytopathic effects on cell cultures treated as described in FIG. 5.
FIG. 7A is a series of images of HSV-plaques showing capacity for cell-to-cell spread following treatment with a vehicle (peg vehicle), peg-Arginase I, or acyclovir, according to an example embodiment of the present invention.
as §1

Nc1ccn(C[C@@H](CO)OCP(=O)(O)O)c(=O)n1 [cidofovir, reference compound]
clinical symptoms / clinical disease presentation [1]: did not prevent clinical disease presentation

O=c1[nH]c(=O)n([C@H]2C[C@H](O)[C@@H](CO)O2)cc1C(F)(F)F [1% TFT, triflourothymidine, reference compound]
dendritic or geographic ulceration and clinical appearance [2]: marked reduction in the presence of dendritic or geographic ulceration, and improved clinical appearance

Nc1nc2c(ncn2COCCO)c(=O)[nH]1 [acyclovir, reference compound]
inhibition of drug-resistant viral replication [3]: not functional against such strains, even at high doses

B1: peg-Arginase I: a formulation of arginase I that has been pegylated; applied as topical ophthalmic eye drop (protein, UniProt P05089 1-322, looked up)
Arginase-1: MSAKSRTIGIIGAPFSKGQPRGGVEEGPTVLRKAGLLEKLKEQECDVKDYGDLPFADIPNDSPFQIVKNPRSVGKASEQLAGKVAEVKKNGRISLVLGGDHSLAIGSISGHARVHPDLGVIWVDAHTDINTPLTTTSGNLHGQPVSFLLKELKGKIPDVPGFSWVTPCISAKDIVYIGLRDVDPGEHYILKTLGIKYFSMTEVDRLGIGKVMEETLSYLLGRKKRPIHLSFDVDGLDPSFTPATGTPVVGGLTYREGLYITEEIYKTGLLSGLDIMEVNPSLGKTPEEVTRTVNTAVAITLACFGLAREGNHKPIDYLNPPK
modifications: PEGylated
notes: a formulation of arginase I that has been pegylated; applied as topical ophthalmic eye drop
toxicity to cells ([4]; Adenovirus infected cell cultures): no toxicity to cells
Adenovirus-mediated cellular cytopathic effects ([4]; vs peg-BSA control): prevents Adenovirus-mediated cellular cytopathic effects
Calculated Times of Corneal Epithelium Closure ([5]; 25% closure): 14 h
Calculated Times of Corneal Epithelium Closure ([5]; 50% closure): 30 h
Calculated Times of Corneal Epithelium Closure ([5]; 75% closure): 38 h
eyes clinically cured of all ocular parameters ([5]; by day six): all eyes clinically cured
time for 100% of eyes to reach clinical cure for epithelial defects relative to peg-vehicle ([5]; compared with peg-vehicle): two days faster
Number of Eyes Clinically Cured for Area of Corneal Debridement ([5]; day 0): 0/5
Number of Eyes Clinically Cured of All Combined Ocular Clinical Conditions ([5]; day 0): 0/5
Number of Eyes Clinically Cured of Corneal Neovascularization ([5]; day 0): 5/5 (100%)
Number of Eyes Clinically Cured of Scleral Inflammation (Injection) ([5]; day 0): 5/5 (100%)
Number of Eyes Clinically Cured for Area of Corneal Debridement ([5]; day 1): 0/5
Number of Eyes Clinically Cured of All Combined Ocular Clinical Conditions ([5]; day 1): 0/5
Number of Eyes Clinically Cured of Corneal Neovascularization ([5]; day 1): 5/5 (100%)
Number of Eyes Clinically Cured of Scleral Inflammation (Injection) ([5]; day 1): 5/5 (100%)
Number of Eyes Clinically Cured for Area of Corneal Debridement ([5]; day 2): 0/5
Number of Eyes Clinically Cured of All Combined Ocular Clinical Conditions ([5]; day 2): 0/5
Number of Eyes Clinically Cured of Corneal Neovascularization ([5]; day 2): 5/5 (100%)
Number of Eyes Clinically Cured of Scleral Inflammation (Injection) ([5]; day 2): 5/5 (100%)
Number of Eyes Clinically Cured for Area of Corneal Debridement ([5]; day 3): 3/5 (60%)
Number of Eyes Clinically Cured of All Combined Ocular Clinical Conditions ([5]; day 3): 0/5
Number of Eyes Clinically Cured of Corneal Neovascularization ([5]; day 3): 5/5 (100%)
Number of Eyes Clinically Cured of Scleral Inflammation (Injection) ([5]; day 3): 5/5 (100%)
Number of Eyes Clinically Cured for Area of Corneal Debridement ([5]; day 4): 5/5 (100%)
Number of Eyes Clinically Cured of All Combined Ocular Clinical Conditions ([5]; day 4): 4/5 (80%)
Number of Eyes Clinically Cured of Corneal Neovascularization ([5]; day 4): 5/5 (100%)
Number of Eyes Clinically Cured of Scleral Inflammation (Injection) ([5]; day 4): 5/5 (100%)
Number of Eyes Clinically Cured for Area of Corneal Debridement ([5]; day 6): 5/5 (100%)
Number of Eyes Clinically Cured of All Combined Ocular Clinical Conditions ([5]; day 6): 5/5 (100%)
Number of Eyes Clinically Cured of Corneal Neovascularization ([5]; day 6): 5/5 (100%)
Number of Eyes Clinically Cured of Scleral Inflammation (Injection) ([5]; day 6): 5/5 (100%)
eyes exhibiting no symptomology from the surgically-induced trauma ([5]; day four): 80%
corneal edema resulting in corneal clouding and epithelial defects [6]: prevented the appearance of corneal edema
extent and areas of neovascularization of the cornea ([6]; compared to peg-BSA treated controls): significantly reduced
VEGF-mediated migration of primary vascular endothelial cells [7]: prevents VEGF-mediated migration of primary vascular endothelial cells
clinical presentation of disease ([2]; five days of treatment): statistically improved clinical presentation of disease
infectious viral titers upon treatment ([2]; treatment begun after infection established (day three post infection titers matched)): barely detectable
dendritic or geographic ulceration and clinical appearance [2]: marked reduction in the presence of dendritic or geographic ulceration, and improved clinical appearance
antiviral effects [8]: antiviral effects of peg-Arginase I were also observed
clinical symptoms / clinical disease presentation [1]: fewer clinical symptoms
virus-associated cytopathic effects, viral transmission to uninfected cells, cell-to-cell spread ([9]; HSV-1 infected cell cultures): blocked virus-associated cytopathic effects, viral transmission to uninfected cells, and cell-to-cell spread
inhibition of production of infectious virus ([9]; even at high multiplicities of infection (MOIs)): greater than 1000 fold
effectiveness compared with acyclovir ([9]; infectious viral yield, HSV-1): at least as effective as high doses of a common anti-herpetic, acyclovir
inhibition of drug-resistant viral replication [3]: highly efficient at inhibiting drug-resistant viral replication
